The record followed here is patent US20170037088A1 (published 2017).

Series [1] addresses hGHR-Fc (human) (UniProt P10912). The series is described as follows: ELISA.
The target in series [2] is AC296 (FIX-XTEN_AE864 that lacks an XTEN release site) (UniProt P00740).
For series [3], the target named is AC299 (FIX-XTEN_AE864 with an XTEN release site specific for FXI) (UniProt P00740).
The target in series [4] is AC300 (FIX-XTEN_AE864 with an XTEN release site specific for thrombin) (UniProt P00740).
The target of series [5] is glucagon receptor (UniProt P47871 26-477, limits assumed). In words: cell-based or functional assay.

Chain of hGHR-Fc (human) (P10912 19-264): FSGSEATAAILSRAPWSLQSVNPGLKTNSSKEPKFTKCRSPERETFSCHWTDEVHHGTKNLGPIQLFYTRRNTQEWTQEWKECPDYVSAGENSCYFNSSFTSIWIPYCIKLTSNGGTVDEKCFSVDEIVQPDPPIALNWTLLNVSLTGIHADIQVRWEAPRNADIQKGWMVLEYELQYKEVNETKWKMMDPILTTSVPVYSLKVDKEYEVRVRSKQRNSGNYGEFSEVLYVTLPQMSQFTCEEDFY

For AE912-hGH-AE144, the EC50 in series [1] is 16.2 nM.
For the molecule “immobilized thrombin (Thrombin CleanCleave Kit, RECOM-T, Sigma)”, the Clotting activity (ng/ng), with thrombin was determined as 0.01 ng/ng in series [2], 0.02 ng/ng in series [3] and 0.8 ng/ng in series [4].

B1: glucagon-Y288 (other)
chain: HSQGTFTSDYSKYLDSRRAQDFVQWLMNTGEGSGEGSEGEGSEGSGEGEGSEGSGEGEGGSEGSEGEGGSEGSEGEGGSEGSEGEGSGEGSEGEGGSEGSEGEGSGEGSEGEGSEGGSEGEGGSEGSEGEGSGEGSEGEGGEGGSEGEGSEGSGEGEGSGEGSEGEGSEGSGEGEGSGEGSEGEGSEGSGEGEGSEGSGEGEGGSEGSEGEGSEGSGEGEGGEGSGEGEGSGEGSEGEGGGEGSEGEGSGEGGEGEGSEGGSEGEGGSEGGEGEGSEGSGEGEGSEGGSEGEGSEGGSEGEGSEGSGEGEGSEGSGE
Consider B1, for which, in series [5], the “EC50, real-time calcium mobilization (FLIPR)” value came out at 72 nM.
